Source: patent US20240398963A1 (priority 2021, published 2024)

Assay type: physicochemical
Settings: 10 mM PBS buffer (pH=7.4), 37° C., 100 rpm shaker; free drug by HPLC, average release per day
Description: The drug release and stability experiments were run using the test compounds. About 2.5±1.0 mg/mL (with regard to conjugate) solution of each test compound was prepared with 10 mM PBS buffer (pH=7.4) in Millipore Amicon® Ultra-0.5 ml 30 k Ultrafiltration centrifuge tube. The solution was kept swelling for 1 h at room temperature and then placed in a shaker at 100 rpm, 37° C. for continuous experiment. At the same time point of each day, samples were centrifuged at 10000 rpm for 1 h. The aliquot was transferred to HPLC vial for analysis. An 0.4 mL of 10 mM PBS buffer was added into the centrifuge tube and continue the experiment.
For the HPLC analysis at each time point, the peak areas of all relevant peaks from the chromatograms were retrieved and the concentration of free drug was calculated. Average release of free drug was calculated based on the sum of free drug and numbers of experiment days. The computing equation is as below.
The sample degradation rate was calculated based on the concentration and degree of substitution (NMR) for conjugated drug with regard to the initial starting point of the experiment (at t=0). The computing equation is as below.

“Conjugate of HA and 2-((8S,9S,10R,11S,13S,14S,17R)-11,17-dihydroxy-10,13-dimethyl-3-oxo-2,3,6,7,8,9,10,11,12,13,14,15,16,17-tetradecahydro-1H-cyclopenta[a]phenanthren-17-yl)-2-oxoethyl 6-aminohexanoate [Example 93]” showed a Release rate of 7.67 %/day.
Substance “Conjugate of HA and 5-aminopentyl (2-((8S,9S,10R,11S,13S,14S,17R)-11,17-dihydroxy-10,13-dimethyl-3-oxo-6,7,8,9,10,11,12,13,14,15,16,17-dodecahydro-3H-cyclopenta[a]phenanthren-17-yl)-2-oxoethyl) carbonate [Example 85]” has a Release rate of 7.65 %/day.
With “Conjugate of HA and 2-((8S,9S,10R,11S,13S,14S,17R)-11,17-dihydroxy-10,13-dimethyl-3-oxo-2,3,6,7,8,9,10,11,12,13,14,15,16,17-tetradecahydro-1H-cyclopenta[a]phenanthren-17-yl)-2-oxoethyl 5-aminopentanoate [Example 76]” the Release rate was 2.66 %/day.
Substance “Conjugate of CS and 4-aminobutyl (2-((8S,9S,10R,11S,13S,14S,17R)-11,17-dihydroxy-10,13-dimethyl-3-oxo-2,3,6,7,8,9,10,11,12,13,14,15,16,17-tetradecahydro-1H-cyclopenta[a]phenanthren-17-yl)-2-oxoethyl) carbonate [Example 65]” has a Release rate of 7.52 %/day.
“Conjugate of HA and 2-((8S,9R,10S,11S,13S,14S,16R,17R)-9-fluoro-11,17-dihydroxy-10,13,16-trimethyl-3-oxo-6,7,8,9,10,11,12,13,14,15,16,17-dodecahydro-3H-cyclopenta[a]phenanthren-17-yl)-2-oxoethyl 6-aminohexanoate [Example 83]” showed a Release rate of 2.15 %/day.
For “Conjugate of HA and 2-((8S,9S,10R,13S,14S,17R)-17-hydroxy-10,13-dimethyl-3,11-dioxo-2,3,6,7,8,9,10,11,12,13,14,15,16,17-tetradecahydro-1H-cyclopenta[a]phenanthren-17-yl)-2-oxoethyl 4-aminobutanoate [Example 40]”, the Release rate was 2.49 %/day.
“Conjugate of HA and 2-((8S,9R,10S,11S,13S,14S,16R,17R)-9-fluoro-11,17-dihydroxy-10,13,16-trimethyl-3-oxo-6,7,8,9,10,11,12,13,14,15,16,17-dodecahydro-3H-cyclopenta[a]phenanthren-17-yl)-2-oxoethyl 4-aminobutanoate [Example 44]” gave a Release rate of 1.12 %/day.
Work on “Conjugate of CS and 4-aminobutyl (2-((8S,9R,10S,11S,13S,14S,16S,17R)-9-fluoro-11,17-dihydroxy-10,13,16-trimethyl-3-oxo-6,7,8,9,10,11,12,13,14,15,16,17-dodecahydro-3H-cyclopenta[a]phenanthren-17-yl)-2-oxoethyl) carbonate [Example 73]” yielded a Release rate of 13.44 %/day.
With “Conjugate of HA and 2-((8S,9S,10R,11S,13S,14S,17R)-11,17-dihydroxy-10,13-dimethyl-3-oxo-6,7,8,9,10,11,12,13,14,15,16,17-dodecahydro-3H-cyclopenta[a]phenanthren-17-yl)-2-oxoethyl-5-aminopentanoate [Example 75]” the Release rate was 4.80 %/day.
With “Conjugate of HA and 2-((8S,9R,10S,11S,13S,14S,16S,17R)-9-fluoro-11,17-dihydroxy-10,13,16-trimethyl-3-oxo-6,7,8,9,10,11,12,13,14,15,16,17-dodecahydro-3H-cyclopenta[a]phenanthren-17-yl)-2-oxoethyl 4-aminobutanoate [Example 46]” the Release rate was 2.95 %/day.
Substance “Conjugate of HA and 5-aminopentyl (2-((8S,9R,10S,11S,13S,14S,16R,17R)-9-fluoro-11,17-dihydroxy-10,13,16-trimethyl-3-oxo-6,7,8,9,10,11,12,13,14,15,16,17-dodecahydro-3H-cyclopenta[a]phenanthren-17-yl)-2-oxoethyl) carbonate [Example 87]” has a Release rate of 6.96 %/day.
“Conjugate of HA and 5-aminopentyl (2-((8S,9S,10R,11S,13S,14S,17R)-11,17-dihydroxy-10,13-dimethyl-3-oxo-2,3,6,7,8,9,10,11,12,13,14,15,16,17-tetradecahydro-1H-cyclopenta[a]phenanthren-17-yl)-2-oxoethyl) carbonate [Example 90]” showed a Release rate of 4.56 %/day.
In the case of “Conjugate of HA and 4-aminobutyl (2-((8S,9S,10R,11S,13S,14S,17R)-11,17-dihydroxy-10,13-dimethyl-3-oxo-2,3,6,7,8,9,10,11,12,13,14,15,16,17-tetradecahydro-1H-cyclopenta[a]phenanthren-17-yl)-2-oxoethyl) carbonate [Example 64]”, the Release rate is reported as 7.61 %/day.
In the case of “Conjugate of CS and 2-((8S,9R,10S,11S,13S,14S,16R,17R)-9-fluoro-11,17-dihydroxy-10,13,16-trimethyl-3-oxo-6,7,8,9,10,11,12,13,14,15,16,17-dodecahydro-3H-cyclopenta[a]phenanthren-17-yl)-2-oxoethyl 4-aminobutanoate [Example 45]”, the Release rate is reported as 0.40 %/day.
Work on “Conjugate of CS and 2-(2-(2-(2-aminoethoxy)ethoxy)ethoxy)ethyl (2-((6αS,6βR,7S,8αS,8βS,11αR,12αS,12βS)-6β-fluoro-7-hydroxy-6α,8α,10,10-tetramethyl-4-oxo-1,2,4,6α,6β,7,8,8α,11α,12,12α,12β-dodecahydro-8βH-naphtho[2′,1′:4,5]indeno[1,2-d][1,3]dioxol-8β-yl)-2-oxoethyl) carbonate [Example 55]” yielded a Release rate of 1.20 %/day.
In the case of “Conjugate of CS and 4-aminobutyl (2-((8S,9S,10R,13S,14S,17R)-17-hydroxy-10,13-dimethyl-3,11-dioxo-6,7,8,9,10,11,12,13,14,15,16,17-dodecahydro-3H-cyclopenta[a]phenanthren-17-yl)-2-oxoethyl) carbonate [Example 61]”, the Release rate is reported as 7.26 %/day.
With “Conjugate of HA and 2-((8S,9S,10R,13S,14S,17R)-17-hydroxy-10,13-dimethyl-3,11-dioxo-2,3,6,7,8,9,10,11,12,13,14,15,16,17-tetradecahydro-1H-cyclopenta[a]phenanthren-17-yl)-2-oxoethyl 5-aminopentanoate [Example 77]” the Release rate was 4.81 %/day.
Substance “Conjugate of HA and 2-((8S,9S,10R,13S,14S,17R)-17-hydroxy-10,13-dimethyl-3,11-dioxo-2,3,6,7,8,9,10,11,12,13,14,15,16,17-tetradecahydro-1H-cyclopenta[a]phenanthren-17-yl)-2-oxoethyl 6-aminohexanoate [Example 94]” has a Release rate of 2.85 %/day.
Work on “Conjugate of HA and 2-((6αS,6βR,7S,8αS,8βS,11αR,12αS,12βS)-6β-fluoro-7-hydroxy-6α,8α,10,10-tetramethyl-4-oxo-1,2,4,6α,6β,7,8,8α,11α,12,12α,12β-dodecahydro-8βH-naphtho[2′,1′:4,5]indeno[1,2-d][1,3]dioxol-8β-yl)-2-oxoethyl 2,5-diazabicyclo[2.2.1]heptane-2-carboxylate [Example 58]” yielded a Release rate of 0.25 %/day.
For “Conjugate of HA and 4-aminobutyl (2-((6S,8S,9S,10R,11S,13S,14S,17R)-11,17-dihydroxy-6,10,13-trimethyl-3-oxo-6,7,8,9,10,11,12,13,14,15,16,17-dodecahydro-3H-cyclopenta[a]phenanthren-17-yl)-2-oxoethyl) carbonate [Example 68]”, the Release rate was 8.02 %/day.
Substance “Conjugate of HA and 2-((8S,9S,10R,13S,14S,17R)-17-hydroxy-10,13-dimethyl-3,11-dioxo-6,7,8,9,10,11,12,13,14,15,16,17-dodecahydro-3H-cyclopenta[a]phenanthren-17-yl)-2-oxoethyl 6-aminohexanoate [Example 92]” has a Release rate of 8.21 %/day.
With “Conjugate of HA and 4-aminobutyl (2-((8S,9S,10R,11S,13S,14S,17R)-11,17-dihydroxy-10,13-dimethyl-3-oxo-6,7,8,9,10,11,12,13,14,15,16,17-dodecahydro-3H-cyclopenta[a]phenanthren-17-yl)-2-oxoethyl) carbonate [Example 62]” the Release rate was 0.14 %/day.
Substance “Conjugate of HA and 2-((6S,8S,9S,10R,11S,13S,14S,17R)-11,17-dihydroxy-6,10,13-trimethyl-3-oxo-6,7,8,9,10,11,12,13,14,15,16,17-dodecahydro-3H-cyclopenta[a]phenanthren-17-yl)-2-oxoethyl 5-aminopentanoate [Example 78]” has a Release rate of 8.92 %/day.
With “Conjugate of HA and 4-aminobutyl (2-((8S,9R,10S,11S,13S,14S,16R,17R)-9-fluoro-11,17-dihydroxy-10,13,16-trimethyl-3-oxo-6,7,8,9,10,11,12,13,14,15,16,17-dodecahydro-3H-cyclopenta[a]phenanthren-17-yl)-2-oxoethyl) carbonate [Example 70]” the Release rate was 3.49 %/day.
In the case of “Conjugate of HA and 2-((8S,9S,10R,11S,13S,14S,17R)-11,17-dihydroxy-10,13-dimethyl-3-oxo-6,7,8,9,10,11,12,13,14,15,16,17-dodecahydro-3H-cyclopenta[a]phenanthren-17-yl)-2-oxoethyl 6-aminohexanoate [Example 81]”, the Release rate is reported as 1.71 %/day.
